# Data reported in the supplement of paper PMC7125110.
# ± gives the standard error. Fewer inactive variants are shown than the library holds.
# B1: glmS ribozyme (parent)
# chain: AUAAAAGCGCCAGAACUACAGAAAUGUAGUUGACGAGGAGGAGGUUUAUCGAAUUUUCGGCGGAUGCCUCCAAA
# What was measured:
# Conditions in all cases: with glucosamine-6-phosphate
# glucosamine-6-phosphate [1] = variants of: B1; assay: self-cleavage kobs at 40 uM GlcN6P; higher = faster cleavage; RNA array
# How it was run: (§1)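 The measurements used barcoded ribozyme variants on sequenced MiSeq chips, transcribed in situ by E. coli RNA polymerase and tracked at 37 °C with a hybridised Cy3 probe. Glucosamine-6-phosphate, 40 μM to 10 mM in HEPES/KCl/Mg(OAc)2 buffer, was flowed in while tiles were imaged over ~14 h. Baseline-normalised signals, also normalised to non-cleaving reference variants, gave per-tile medians that were fit to one- or two-exponential decays for kobs. kcat and KM resulted from weighted Michaelis–Menten fits across concentrations.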
# glucosamine-6-phosphate [2] = variants of: B1; assay: self-cleavage kobs at 10000 uM GlcN6P; higher = faster cleavage; RNA array
# How it was run: as §1
# glucosamine-6-phosphate [3] = variants of: B1; assay: self-cleavage kobs at 160 uM GlcN6P; higher = faster cleavage; RNA array
# How it was run: as §1
# glucosamine-6-phosphate [4] = variants of: B1; assay: self-cleavage kobs at 2500 uM GlcN6P; higher = faster cleavage; RNA array
# How it was run: as §1
# glucosamine-6-phosphate [5] = variants of: B1; assay: self-cleavage kobs at 640 uM GlcN6P; higher = faster cleavage; RNA array
# How it was run: as §1
Variant,self-cleavage kobs at 40 uM GlcN6P (glucosamine-6-phosphate [1]) [s⁻¹],self-cleavage kobs at 10000 uM GlcN6P (glucosamine-6-phosphate [2]) [s⁻¹],self-cleavage kobs at 160 uM GlcN6P (glucosamine-6-phosphate [3]) [s⁻¹],self-cleavage kobs at 2500 uM GlcN6P (glucosamine-6-phosphate [4]) [s⁻¹],self-cleavage kobs at 640 uM GlcN6P (glucosamine-6-phosphate [5]) [s⁻¹]
AUAAAAGCGCCAGAACUACAGAAAUGUAGUUGACGAGGAGGAGGUUUAUCGAAUUUUCGGCAGAUGCCUCAAAA [G62A C71A],< 1e-05,< 1e-05,,,
AUAAAAGCGCCAGAACUACAGAAAUGUAGUUGACGAGGAGGAGGUUUAUCGAAUUUUCGUCGGUUGCCUCCAAA [G60U A64U],< 1e-05,< 1e-05,< 1e-05,< 1e-05,
AUAAAAGCGCCAGAACUACAGAAAUGUAGUUGACGAGGAGGAGGUUUAUCGAAUUUUCGCCGGAUGCCUCGAAA [G60C C71G],< 1e-05,< 1e-05,< 1e-05,,
AUAAAAGCGCCAGAACUACAGAAAUGUAGUUGACGAGGAGGAGGUUUAUCGAAUUUUCGGAGGACGCCUUCAAA [C61A U65C C70U],< 1e-05,< 1e-05,,,
AUAAAAGCGCCAGAACUACAGAAAUGUAGUUGACGAGGAGGAGGUUUAUCGAAUUUUCGGCGGCUGGCUCCAAA [A64C C67G],< 1e-05,,< 1e-05,< 1e-05,< 1e-05
AUAAAAGCGCCAGAACUACAGAAAUGUAGUUGACGAGGAGGAGGUUUAUCGAAUUUUCGUCAGAUGCCUUCAAA [G60U G62A C70U],< 1e-05,< 1e-05,,,
AUAAAAGCGCCAGAACUACAGAAAUGUAGUUGACGAGGAGGAGGUUUAUCGAAUUUUCGGCCGAAGCCUCCAAA [G62C U65A],< 1e-05,,,,
AUAAAAGCGCCAGAACUACAGAAAUGUAGUUGACGAGGAGGAGGUUUAUCGAAUUUUCGGCAGAUGUCUCCAAA [G62A C67U],< 1e-05,< 1e-05,,< 1e-05,
AUAAAAGCGCCAGAACUACAGAAAUGUAGUUGACGAGGAGGAGGUUUAUCGAAUUUUCGCCGGAUGUCUCCAAA [G60C C67U],< 1e-05,< 1e-05,,,
AUAAAAGCGCCAGAACUACAGAAAUGUAGUUGACGAGGAGGAGGUUUAUCGAAUUUUCGGUGGAUGACUUCAAA [C61U C67A C70U],4.32e-05 ± 1.7e-05,,,,
AUAAAAGCGCCAGAACUACAGAAAUGUAGUUGACGAGGAGGAGGUUUAUCGAAUUUUCGGCAGCUGCCUCCAAA [G62A A64C],< 1e-05,< 1e-05,< 1e-05,< 1e-05,< 1e-05
AUAAAAGCGCCAGAACUACAGAAAUGUAGUUGACGAGGAGGAGGUUUAUCGAAUUUUCGGGGGACACCUCCAAA [C61G U65C G66A],< 1e-05,< 1e-05,,,
AUAAAAGCGCCAGAACUACAGAAAUGUAGUUGACGAGGAGGAGGUUUAUCGAAUUUUCGUGGGAUGCCUCCAAA [G60U C61G],< 1e-05,< 1e-05,,< 1e-05,
AUAAAAGCGCCAGAACUACAGAAAUGUAGUUGACGAGGAGGAGGUUUAUCGAAUUUUCGGCUUAUGCGUCCAAA [G62U G63U C68G],< 1e-05,,,,
AUAAAAGCGCCAGAACUACAGAAAUGUAGUUGACGAGGAGGAGGUUUAUCGAAUUUUCGCCGGAUUCCUCCAAA [G60C G66U],< 1e-05,,,< 1e-05,< 1e-05
AUAAAAGCGCCAGAACUACAGAAAUGUAGUUGACGAGGAGGAGGUUUAUCGAAUUUUCGGCUGAUGCCUACAAA [G62U C70A],< 1e-05,,,,
AUAAAAGCGCCAGAACUACAGAAAUGUAGUUGACGAGGAGGAGGUUUAUCGAAUUUUCGGUGAAUGCCUCCAAA [C61U G63A],< 1e-05,< 1e-05,< 1e-05,,< 1e-05
AUAAAAGCGCCAGAACUACAGAAAUGUAGUUGACGAGGAGGAGGUUUAUCGAAUUUUCGGCGACUGCCUCCAAA [G63A A64C],< 1e-05,,< 1e-05,< 1e-05,< 1e-05
AUAAAAGCGCCAGAACUACAGAAAUGUAGUUGACGAGGAGGAGGUUUAUCGAAUUUUCGGGGGAUGCCUCGAAA [C61G C71G],3.55e-05 ± 1.3e-05,,0.000119 ± 3e-05,4.16e-05 ± 1.6e-05,7.69e-05 ± 2.5e-05
AUAAAAGCGCCAGAACUACAGAAAUGUAGUUGACGAGGAGGAGGUUUAUCGAAUUUUCGGAUGAUGCCUCCAAA [C61A G62U],< 1e-05,< 1e-05,< 1e-05,,< 1e-05
AUAAAAGCGCCAGAACUACAGAAAUGUAGUUGACGAGGAGGAGGUUUAUCGAAUUUUCGCCGGAGGCCUCCAAA [G60C U65G],< 1e-05,< 1e-05,< 1e-05,,< 1e-05
AUAAAAGCGCCAGAACUACAGAAAUGUAGUUGACGAGGAGGAGGUUUAUCGAAUUUUCGUCUGAUGCCUCCAAA [G60U G62U],< 1e-05,< 1e-05,< 1e-05,< 1e-05,< 1e-05
AUAAAAGCGCCAGAACUACAGAAAUGUAGUUGACGAGGAGGAGGUUUAUCGAAUUUUCGGUGGAAGCCUCCAAA [C61U U65A],< 1e-05,< 1e-05,,,< 1e-05
AUAAAAGCGCCAGAACUACAGAAAUGUAGUUGACGAGGAGGAGGUUUAUCGAAUUUUCGUCGAAUGUCUCCAAA [G60U G63A C67U],< 1e-05,,,,
AUAAAAGCGCCAGAACUACAGAAAUGUAGUUGACGAGGAGGAGGUUUAUCGAAUUUUCGACGGCUGCCUCCAAA [G60A A64C],< 1e-05,,,,< 1e-05
AUAAAAGCGCCAGAACUACAGAAAUGUAGUUGACGAGGAGGAGGUUUAUCGAAUUUUCGGCAGAUUCCUCCAAA [G62A G66U],< 1e-05,< 1e-05,,< 1e-05,< 1e-05
